B1: RelB (other, mouse, UniProt Q04863 1-558, looked up)
chain: MPSRRAARESAPELGALGSSDLSSLSLTVSRTTDELEIIDEYIKENGFGLDGTQLSEMPRLVPRGPASLSSVTLGPAAPPPPATPSWSCTLGRLVSPGPCPRPYLVITEQPKQRGMRFRYECEGRSAGSILGESSTEASKTLPAIELRDCGGLREVEVTACLVWKDWPHRVHPHSLVGKDCTDGVCRVRLRPHVSPRHSFNNLGIQCVRKKEIEAAIERKIQLGIDPYNAGSLKNHQEVDMNVVRICFQASYRDQQGHLHRMDPILSEPVYDKKSTNTSELRICRINKESGPCTGGEELYLLCDKVQKEDISVVFSTASWEGRADFSQADVHRQIAIVFKTPPYEDLEISEPVTVNVFLQRLTDGVCSEPLPFTYLPRDHDSYGVDKKRKRGLPDVLGELSSSDPHGIESKRRKKKPVFLDHFLPGHSSGLFLPPSALQPADSDFFPASISLPGLEPPGGPDLLDDGFAYDPSAPTLFTMLDLLPPAPPLASAVVGSGGAGATVVESSGPEPLSLDSFAAPGPGDVGTASLVGSNMFPNQYREAAFGGGLLSPGPEAT
B2: c-Rel (other, mouse, UniProt P15307 2-587, looked up)
chain: ASSGYNPYVEIIEQPRQRGMRFRYKCEGRSAGSIPGERSTDNNRTYPSVQIMNYYGKGKIRITLVTKNDPYKPHPHDLVGKDCRDGYYEAEFGPERRPLFFQNLGIRCVKKKEVKGAIILRISAGINPFNVGEQQLLDIEDCDLNVVRCVFMFFLPDEDGNFTTALPPIVSNPIYDNRAPNTAELRICRVNKNCGSVRGGDEIFLLCDKVQKDDIEVRFVLNDWEARGVFSQADVHRQVAIVFKTPPYCKAILEPVTVKMQLRRPSDQEVSESMDFRYLPDEKDAYGNKSKKQKTTLIFQKLLQDCGHFTEKPRTAPLGSTGEGRFIKKESNLFSHGTVLPEMPRSSGVPGQAEPYYSSCGSISSGLPHHPPAIPSVAHQPTSWPPVTHPTSHPVSTNTLSTFSAGTLSSNSQGILPFLEGPGVSDLSASNSCLYNPDDLARMETPSMSPTDLYSISDVNMLSTRPLSVMAPSTDGMGDTDNPRLVSINLENPSCNARLGPRDLRQLHQMSPASLSAGTSSSSVFVSQSDAFDRSNFSCVDNGLMNEPGLSDDANNPTFVQSSHYSVNTLQSEQLSDPFTYGFFKI
notes: Immunoprecipitated with anti-c-Rel (Santa Cruz)
B3: RelA (other, mouse, UniProt Q04207 1-549, looked up)
chain: MDDLFPLIFPSEPAQASGPYVEIIEQPKQRGMRFRYKCEGRSAGSIPGERSTDTTKTHPTIKINGYTGPGTVRISLVTKDPPHRPHPHELVGKDCRDGYYEADLCPDRSIHSFQNLGIQCVKKRDLEQAISQRIQTNNNPFHVPIEEQRGDYDLNAVRLCFQVTVRDPAGRPLLLTPVLSHPIFDNRAPNTAELKICRVNRNSGSCLGGDEIFLLCDKVQKEDIEVYFTGPGWEARGSFSQADVHRQVAIVFRTPPYADPSLQAPVRVSMQLRRPSDRELSEPMEFQYLPDTDDRHRIEEKRKRTYETFKSIMKKSPFNGPTEPRPPTRRIAVPTRNSTSVPKPAPQPYTFPASLSTINFDEFSPMLLPSGQISNQALALAPSSAPVLAQTMVPSSAMVPLAQPPAPAPVLTPGPPQSLSAPVPKSTQAGEGTLSEALLHLQFDADEDLGALLGNSTDPGVFTDLASVDNSEFQQLLNQGVSMSHSTAEPMLMEYPEAITRLVTGSQRPPDPAPTPLGTSGLPNGLSGDEDFSSIADMDFSALLSQISS
notes: Immunoprecipitated with anti-RelA (Santa Cruz); also called NF-κB RelA
B4: p52 subunit (other, mouse, UniProt Q9WTK5 1-454, looked up)
chain: MDNCYDPGLDGIPEYDDFEFSPSIVEPKDPAPETADGPYLVIVEQPKQRGFRFRYGCEGPSHGGLPGASSEKGRKTYPTVKICNYEGPAKIEVDLVTHSDPPRAHAHSLVGKQCSELGVCAVSVGPKDMTAQFNNLGVLHVTKKNMMEIMIQKLQRQRLRSKPQGLTEAERRELEQEAKELKKVMDLSIVRLRFSAFLRASDGSFSLPLKPVISQPIHDSKSPGASNLKISRMDKTAGSVRGGDEVYLLCDKVQKDDIEVRFYEDDENGWQAFGDFSPTDVHKQYAIVFRTPPYHKMKIERPVTVFLQLKRKRGGDVSDSKQFTYYPLVEDKEEVQRKRRKALPTFSQPFGGGSHMGGGSGGSAGGYGGAGGGGSLGFFSSSLAYNPYQSGAAPMGCYPGGGGGAQMAGSRRDTDAGEGAEEPRTPPEAPQGEPQALDTLQRAREYNARLFGLA

The assay has as its target T1, IκB-ζ (mouse, UniProt Q9EST8 1-728, limits assumed).
T1 construct: also called MAIL; INAP
T1 sequence (looked up): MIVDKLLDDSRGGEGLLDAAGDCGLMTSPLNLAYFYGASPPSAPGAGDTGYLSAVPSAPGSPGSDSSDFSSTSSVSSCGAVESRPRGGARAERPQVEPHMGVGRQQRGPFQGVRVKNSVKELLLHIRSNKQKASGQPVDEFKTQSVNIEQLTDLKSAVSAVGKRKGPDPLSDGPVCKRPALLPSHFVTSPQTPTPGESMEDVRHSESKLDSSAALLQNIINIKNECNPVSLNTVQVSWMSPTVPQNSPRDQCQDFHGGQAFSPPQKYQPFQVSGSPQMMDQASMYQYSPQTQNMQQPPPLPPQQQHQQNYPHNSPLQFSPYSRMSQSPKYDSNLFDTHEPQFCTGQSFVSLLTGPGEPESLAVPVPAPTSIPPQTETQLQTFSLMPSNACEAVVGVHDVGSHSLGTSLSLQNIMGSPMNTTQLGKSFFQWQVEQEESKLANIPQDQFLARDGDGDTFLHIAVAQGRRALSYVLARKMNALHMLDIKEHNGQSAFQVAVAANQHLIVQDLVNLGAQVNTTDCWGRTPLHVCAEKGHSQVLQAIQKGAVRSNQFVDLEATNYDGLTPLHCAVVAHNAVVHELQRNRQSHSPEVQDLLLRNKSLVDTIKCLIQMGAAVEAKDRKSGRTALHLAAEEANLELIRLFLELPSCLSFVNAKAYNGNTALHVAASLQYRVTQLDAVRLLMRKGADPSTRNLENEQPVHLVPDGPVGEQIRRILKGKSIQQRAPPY
Nature of the assay: co-immunoprecipitation from peritoneal macrophage lysates, immunoblot with α-IκB-ζ. The text has this: RAW 264.7 cells were transiently transfected with luciferase reporter constructs of either mouse IL-6 promoter or ELAM1 promoter together with either a control or the IκB-ζ expression plasmid. Luciferase activities were expressed as fold-increase over the background shown by lysates prepared from untransfected cells. Data are representative of three separate experiments. In all three experiments, cells were stimulated with the indicated concentrations of LPS. b. A certain amount of IκB-ζ expression vector was transiently introduced into untreated RAW 264.7 cells with the indicated amount of IL-6 reporter plasmid. Data are representative of three independent experiments. c. Reporter constructs of either a wild-type or mutant IL-6 promoter were transiently introduced into P19 embryonic canrinoma cells together with either a control or an IκB-ζ expression plasmid. Luciferase activities were normalized in each case of reporter constructs by dividing the increase rate of IκB-ζ-expressed cells over the background shown by lysates by that of mock-expressed cells. d. Chromatin from untreated (−) or LPS-treated (+) (1 μg ml⁻¹ for 3 hours) RAW 264.7 cells were used for ChIp with the indicated antibodies. Precipitated DNA for the IL-6 κB site (left), 3′ region of IL-6 gene (center), or ELAM1 promoter (right) was measured by PCR (ChIP). Data are representative of two independent experiments. e. Unstimulated or LPS-stimulated (10 ng ml⁻¹) peritoneal macrophages were immunoprecepitated with the indicated antibodies. The immunoprecipitated lysates were subsequently immunoblotted with α-IκB-ζ.
Peritoneal macrophages and MEFs were stimulated with the indicated ligands for the indicated periods. The cells were then lysed in a lysis buffer containing 1.0% Nonidet-P40, 150 mM NaCl, 20 mM Tris-Cl (pH 7.5), 5 mM EDTA and protein inhibitor (Roche). The cell lysates were dissolved by SDS-PAGE and transferred on a PVDF membrances. For immunoprecipitation, cell lysates were precleared with Protein G-Sepharose™ (Amersham Pharmacia Biotech) for 2 h and then incubated with Protein G-Sepharose™ containing 1.0 μg of the indicated antibodies for 12 h with stirring at 4° C. The immunoprecipitants were washed four times with lysis buffer, eluted by boiling with Laemnli sample buffer, and subjected to Western blotting using α-IκB-ζ, as described above.
As for B1, the binding result is listed as “no binding”. As for B2, the entry is “no binding”; as for B3, “no binding”. As for B4, the entry is “no binding”.
